Measured values taken from US20120329854A1, “Methods and Compounds for the Diagnosis and Treatment for Cancer” (UNIVERSITÄTSKLINIKUM FREIBURG, priority 2009, published 2012).

Columns and labels:
[1] = tested on: KLK2 and FKBP5 genes; assay: Quantitative RT-PCR of androgen-regulated genes in LNCaP cells; type: cell-based, human; conditions: miRNA-mediated knockdown (FIG. 3j)
Method: Quantitative RT-PCR and statistical analysis were performed as described. The primers for KLK2 and FKBP5 were described previously^6, 11.

[2] = tested on: LNCaP cells; assay: Cell proliferation assay (BrdU ELISA), R1881-induced proliferation; type: cell-based, human; conditions: LNCaP cells infected with lentivirus, 1×10^−9 M R1881, versus miRNA control (FIG. 4e)
Method: Experiments were performed as described^2. pLenti6-miRNA-control and pLenti6-miRNA-PKCβI were used to produce recombinant lentiviruses to infect LNCaP cells as described^15. The infected cells were cultured for 72 hours in medium containing 10% double-stripped FCS. 1×10^4 cells were plated in a 96-well plate in the presence or absence of 1×10^−9 M R1881. The cell proliferation Elisa BrdU Colorimetric Assay (Roche) was performed according to the manufacturer's instructions. […] The experiments were performed in hexaplicate.

B1: 5′-TGCTGTTACGTAGGGATCTGACAGGCGTTTTGGCCACTGACTGACGCCTGTCATCCCTACGTAA-3′ (nucleic acid)
DNA 1: TGCTGTTACGTAGGGATCTGACAGGCGTTTTGGCCACTGACTGACGCCTGTCATCCCTACGTAA
DNA 2: CCTGTTACGTAGGGATGACAGGCGTCAGTCAGTGGCCAAAACGCCTGTCAGATCCCTACGTAAC
modifications: expressed or natural sequence
With B1 as the molecule, how does the “expression of the androgen-regulated KLK2 and FKBP5 genes” value [1] read?
The value was “reduces expression”.

And the R1881-induced cell proliferation [2]?
Its R1881-induced cell proliferation is “severely reduces”.
